Values quoted from earlier work in patent publication US20240156960A1 (priority 2020, published 2024).
Residue numbers refer to the chain shown, from its start.

B1: C103 (antibody, listed as Homo sapiens, V domains shown)
VH: QVQLQQWGAGLLKPSETLSLTCAVSGGSLSGFYWTWIRQPPGKGLEWIGETNHFGSTGYKPSLKSRVTISVDMSRNQFSLKVTSVTAADTAVYYCARKPLLYSDFSPGAFDIWGQGTMVTVSS
VL: EIVLTQSPGTLSLSPGERATLSCRASQTVTANYLAWYQQKPGQAPRLLIYGASKRATGIPDRFSGSGSGTDFTLSISRLEPEDFAVYYCQQYTTTPRTFGGGTKVEIK
B2: C110 (antibody, listed as Homo sapiens, V domains shown)
VH: QVQLQQSGAEVKKPGESLKISCKGSGYSFTSYWIGWVRQMPGKGLEWMGIIYPGDSDTRYSPSFQGQVTISADKSISTAYMQWSSLKASDTAMYYCARSFRDDPRIAVAGPADAFDIWGQGTMVTVSS
VL: DIQMTQSPSTLSASVGDRVTITCRASQSISYWLAWYQQKPGKAPKLLIYQASSLESGVPSRFSGSESGTEFTLTISSLQPDDFATYYCQQYNSYPYTFGQGTKLEIK
B3: C108 (antibody, listed as Homo sapiens, V domains shown)
VH: QVQLQESGPGLVKPSGTLSLTCAVSGGSISSTNWWSWVRQPPGKGLEWIGEIYHTGSTNYNPSLKSRVTISVDKSKNQFSLKLSSVTAADTAVYYCVRDGGRPGDAFDIWGQGTMVTVSS
VL: QSALTQPASVSGSPGQSITISCTGTSSDVGGYNYVSWYQQHPGKAPKLMIYDVSNRPSGVSNRFSGSKSGNTASLTISGLQAEDEADYYCNSYTSSSTRVFGTGTKVTVL
B4: C101 (antibody, listed as Homo sapiens, V domains shown)
VH: QVQLVESGGGLIQPGGSLRLSCAASGFIVSSNYMSWVRQAPGKGLEWVSVIYSGGSTFYTDSVKGRFTISRDNSKNTLYLQMNSLRAEDTAVYYCVRDYGDFYFDYWGQGTLVTVSS
VL: EIVLTQSPGTLSLSPGERATLSCRASQSVSSSYLAWYQQKPGQAPRLLIYGASSRATGIPDRFSGGGSETDFTLTISRLEPEDCAVYYCQQYGSSPRTFGQGTKVEIK
B5: C104 (antibody, listed as Homo sapiens, V domains shown)
VH: QVQLQQWGAGLLKPSETLSLSCAVYGGSLSGYYWSWIRQPPGKGLEWIGEINHFGSTGYNPSLKSRVTISVDTSKSQFSVKLSSVTAADTAVYYCARKPLLYSNLSPGAFDIWGQGTMVTVSS
VL: B1 VL with L11V, R24W, T28S, T30S, N32S, K54S, S75T, T93G
B6: C105 (antibody, listed as Homo sapiens, V domains shown)
VH: QVQLVESGGGLIQPGGSLRLSCAASGFTVSSNYMSWVRQAPGKGLEWVSVIYSGGSTYYADSVKGRFTISRDNSKNTLYLQMNSLRAEDTAVYYCARGEGWELPYDYWGQGTLVTVSS
VL: QSALTQPPSASGSPGQSVTISCTGTSSDVGGYKYVSWYQQHPGKAPKLMIYEVSKRPSGVPDRFSGSKSGNTASLTVSGLQAEDEADYYCSSYEGSNNFVVFGGGTKLTVL
B7: C017 (antibody, listed as Homo sapiens, V domains shown)
VH: EVQLVESGGGLVQPGRSLRLSCAASGFTFDDYAMHWVRQAPGKGLEWVSGISWNSGTIGYADSVKGRFTISRDNAKNSLYLQMNSLRAEDTAFYYCAKAGVRGIAAAGPDLNFDHWGQGTLVTVSS
VL: EIVLTQSPATLSLSPGERATLSCRASQSVSSYLAWYQQKPGQAPRLLIYDASNRATGIPARFSGSGSGTDFTLTISSLEPEDFAVYYCQQRITFGQGTRLEIK
B8: C115 (antibody, listed as Homo sapiens, V domains shown)
VH: QVQLVESGGGLIKPGRSLRLSCTASGFTFGDYAMTWFRQAPGKGLEWVGFIRSKAYGGTTGYAASVKYRFTISRDDSKSIAYLQMDSLKTEDTAVYYCTRWDGWSQHDYWGQGTLVTVSS
VL: DIVMTQSPLSLSVTPGEPASISCRSSQSLLHSNGNNYFDWYLQKPGQSPQLLIYLGSNRASGVPDRFSGSGSGTDFTLKISRVEAEDVGVYYCMQVLQIPYTFGQGTKLEIK

Target: SARS-CoV2 S; RBD (Severe acute respiratory syndrome coronavirus 2, UniProt P0DTC2)
Details: epitope S

Molecule	Binds to
B1	SARS-CoV2
B2	SARS-CoV2
B3	SARS-CoV2
B4	SARS-CoV2
B5	SARS-CoV2
B6	SARS-CoV2
B7	SARS-CoV2
B8	SARS-CoV2
